Test results: patent publication US20260217804A1 (BIOARCTIC, published 2026)
Substitutions are numbered along the chain they refer to. Names may count otherwise.

T1: AβpE11-40 monomer (UniProt P05067 682-711, pyroglutamate (pE) at position 11, the N-terminus)
T1 construct: range 11-40; The range counts on Aβ numbering, not on APP
T1 peptide (looked up): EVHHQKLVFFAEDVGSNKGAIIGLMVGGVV

B1: AβpE11-28 monomer (peptide, UniProt P05067 682-699, looked up)
peptide: EVHHQKLVFFAEDVGSNK
modifications: pyroglutamate (pE) at position 11, the N-terminus
notes: range 11-28; The range counts on Aβ numbering, not on APP
B2: H2L7-R71A (antibody, human IgG1, kappa)
heavy: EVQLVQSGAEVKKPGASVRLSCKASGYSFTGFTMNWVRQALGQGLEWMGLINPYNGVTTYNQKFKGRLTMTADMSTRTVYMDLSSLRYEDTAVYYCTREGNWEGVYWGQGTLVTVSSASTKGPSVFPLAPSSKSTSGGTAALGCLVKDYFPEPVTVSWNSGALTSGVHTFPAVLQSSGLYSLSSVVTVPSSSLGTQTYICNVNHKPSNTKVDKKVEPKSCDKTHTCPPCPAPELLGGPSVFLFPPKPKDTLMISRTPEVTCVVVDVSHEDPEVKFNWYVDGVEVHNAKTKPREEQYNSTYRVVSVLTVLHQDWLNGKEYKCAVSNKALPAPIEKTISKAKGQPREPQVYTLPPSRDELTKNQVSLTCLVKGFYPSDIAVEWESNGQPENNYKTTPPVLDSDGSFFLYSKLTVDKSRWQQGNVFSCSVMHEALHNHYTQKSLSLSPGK
light: EIVLTQSPLSLSVTLGQSASISCRSSQSLLDSNGKTYLHWFILRPGQSPRRLIYLVSILDSGVPDRFSGSGSGTDFTLKISRVEAEDVGVYYCVQGTHFPFTFGSGTKLEIKRTVAAPSVFIFPPSDEQLKSGTASVVCLLNNFYPREAKVQWKVDNALQSGNSQESVTEQDSKDSTYSLSSTLTLSKADYEKHKVYACEVTHQGLSSPVTKSFNRGEC
notes: Variant of H2L7 with a change in VH only
B3: Pyr7.1 (antibody, IgG2c, V domains shown)
VH: KVQLQQSGPELVKPGTSIKMSCKTSGYSFTGYTLNWVKQSPGKNPEWIGLINPYNGITTYNPKFMGKATLTVDKSSSTAYMELLSLTSEDSAVYYCSREGNWEGVYWGQGTLVTVSA
VL: not shown
notes: also called recombinant antibody Pyr7.1; hybridoma clone Pyr7.1
B4: Pyr12.2 (antibody, IgG2c, V domains shown)
VH: EVQLQQSGPELVKPGTSIKMSCKASGYSFTGFTMNWVKQSHGKNLEWIGLINPYNGVTTYNQKFKGKATITVDKSSRTAYMELLSLTYEDSAVYYCTREGNWEGVYWGQGTPVTVSA
VL: EVVLTQTPLTLSVTIGQSASISCKSSQSLLDSNGKTYLHWFLLRPGQSPKRLIYLVSILDSGVPDRFTGSGSGTDFTLKISRVEAEDLGIYYCVQGTHFPFTFGSGTKLEIKR
notes: also called recombinant antibody Pyr12.2; hybridoma clone Pyr12.2
B5: H2L7 (antibody, human IgG1, kappa, V domains shown)
VH: EVQLVQSGAEVKKPGASVRLSCKASGYSFTGFTMNWVRQALGQGLEWMGLINPYNGVTTYNQKFKGRLTMTRDMSTRTVYMDLSSLRYEDTAVYYCTREGNWEGVYWGQGTLVTVSS
VL: B4 VL with V2I, T7S, T10S, I15L, K24R, L42I, K50R, T68S, L88V, I90V
notes: Humanized IgG1/kappa, expressed in CHO cells; also called humanized Pyr12.2 variant H2L7; VH2/VL7
B6: H2L7-K12V/R83T (antibody, human IgG1, kappa, V domains shown)
VH: B5 VH with K12V, R87T
VL: B4 VL with V2I, T7S, T10S, I15L, K24R, L42I, K50R, T68S, L88V, I90V
notes: Variant of H2L7 with changes in VH only
B7: H2L7-K12V/R71A (antibody, human IgG1, kappa)
heavy: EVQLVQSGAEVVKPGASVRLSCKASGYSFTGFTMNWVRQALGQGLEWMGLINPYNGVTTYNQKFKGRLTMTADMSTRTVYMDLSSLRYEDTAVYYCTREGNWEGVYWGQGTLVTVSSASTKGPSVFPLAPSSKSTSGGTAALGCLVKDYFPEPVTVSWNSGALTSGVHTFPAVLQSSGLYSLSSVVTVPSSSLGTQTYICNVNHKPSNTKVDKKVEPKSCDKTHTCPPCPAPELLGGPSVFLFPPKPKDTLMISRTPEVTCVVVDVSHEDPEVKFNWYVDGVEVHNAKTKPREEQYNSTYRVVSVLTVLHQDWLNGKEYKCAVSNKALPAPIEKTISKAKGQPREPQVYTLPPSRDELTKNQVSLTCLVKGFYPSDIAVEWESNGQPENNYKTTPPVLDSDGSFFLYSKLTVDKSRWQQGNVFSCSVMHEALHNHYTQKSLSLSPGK
light: B2 light
notes: as for B6
B8: H2L7-R71A/R83T (antibody, human IgG1, kappa)
heavy: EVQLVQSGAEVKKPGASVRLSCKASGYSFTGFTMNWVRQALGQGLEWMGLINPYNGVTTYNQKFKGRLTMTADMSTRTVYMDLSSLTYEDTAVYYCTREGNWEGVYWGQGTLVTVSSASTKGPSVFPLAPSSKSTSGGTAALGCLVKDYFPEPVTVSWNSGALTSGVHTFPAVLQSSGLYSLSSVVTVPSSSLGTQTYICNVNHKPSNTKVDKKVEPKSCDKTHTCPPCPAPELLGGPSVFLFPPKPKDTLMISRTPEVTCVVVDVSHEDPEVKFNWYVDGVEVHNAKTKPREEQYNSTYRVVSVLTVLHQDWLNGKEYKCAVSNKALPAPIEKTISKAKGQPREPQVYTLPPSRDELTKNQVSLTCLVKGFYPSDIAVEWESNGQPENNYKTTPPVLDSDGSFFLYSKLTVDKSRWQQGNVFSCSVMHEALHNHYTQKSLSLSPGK
light: B2 light
notes: as for B6
B9: H2L7-K12V/R71A/R83T (antibody, human IgG1, kappa)
heavy: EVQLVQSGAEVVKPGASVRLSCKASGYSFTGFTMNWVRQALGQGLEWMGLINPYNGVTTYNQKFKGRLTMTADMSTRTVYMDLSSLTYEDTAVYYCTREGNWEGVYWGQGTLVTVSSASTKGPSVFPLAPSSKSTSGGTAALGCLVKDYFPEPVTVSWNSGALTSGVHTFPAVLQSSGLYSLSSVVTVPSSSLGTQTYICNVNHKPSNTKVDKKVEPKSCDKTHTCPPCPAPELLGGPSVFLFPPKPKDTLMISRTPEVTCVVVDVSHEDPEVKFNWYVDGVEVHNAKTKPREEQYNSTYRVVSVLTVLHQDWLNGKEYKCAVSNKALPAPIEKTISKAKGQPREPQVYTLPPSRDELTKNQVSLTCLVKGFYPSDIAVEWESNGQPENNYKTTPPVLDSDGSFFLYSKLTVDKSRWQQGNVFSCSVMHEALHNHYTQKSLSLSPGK
light: B2 light
notes: as for B6
B10: H9L8 (antibody, human IgG1, kappa, V domains shown)
VH: QVQLVQSGPEVKKPGSSVKVSCKASGYSFTGFTMNWVRQTPGKGLEWIGLINPYNGVTTYNQKFKGRVTITADESTRTAYMELLSLTYEDTAVYYCTREGNWEGVYWGQGTPVTVSA
VL: EVVLTQSPLSISVTLGQSASISCRSSQSLLDSNGKTYLHWFILRPGQSPRRLIYLVSILDSGIPDRFSGSGSGTDFTLKISRVEAEDVGVYYCVQGTHFPFTFGGGTKLEIKR
notes: Humanized IgG1/kappa, expressed in CHO cells; also called humanized Pyr12.2 variant H9L8; VH9/VL8

How the values were obtained:
H2L7 [1] = biological target: B5; assay: inhibition ELISA: antigen in solution titrated, antibody fixed (0.5 µg/ml), AβpE3-40 coat
Procedure: (§1) The humanized antibodies were incubated at a fixed concentration (0.5 μg/ml) with titrating concentrations of the different Aβ antigens. […] The samples were incubated on the plate for 25 min without shaking followed by washing, incubation with detection antibody, another washing step and finally incubation with alkaline phosphatase substrate.

H9L8 = biological target: B10; assay: as above
Procedure: as §1

H2L7 [2] = biological target: B5; assay: inhibition ELISA as in Example 6: antigen in solution titrated, antibody fixed, AβpE3-40 coat
Procedure: as §1

H2L7-K12V/R71A = biological target: B7; assay: as above
Chain of H2L7-K12V/R71A (heavy, as listed by the source, chain 1 of 2, one chain of several): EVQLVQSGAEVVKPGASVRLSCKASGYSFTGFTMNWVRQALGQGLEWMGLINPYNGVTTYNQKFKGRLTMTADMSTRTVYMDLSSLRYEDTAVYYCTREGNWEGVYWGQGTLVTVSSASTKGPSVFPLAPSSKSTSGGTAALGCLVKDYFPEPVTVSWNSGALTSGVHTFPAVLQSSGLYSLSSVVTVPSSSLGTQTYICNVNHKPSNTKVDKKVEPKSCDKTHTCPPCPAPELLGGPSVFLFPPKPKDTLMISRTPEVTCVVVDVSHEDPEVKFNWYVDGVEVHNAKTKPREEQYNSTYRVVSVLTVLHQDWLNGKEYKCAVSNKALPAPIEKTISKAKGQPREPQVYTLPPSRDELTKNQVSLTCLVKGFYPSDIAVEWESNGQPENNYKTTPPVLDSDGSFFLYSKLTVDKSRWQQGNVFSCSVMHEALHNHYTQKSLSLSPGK
Procedure: as §1

H2L7-K12V/R83T = biological target: B6; assay: as above
Chain of H2L7-K12V/R83T (VH, as listed by the source, chain 1 of 2, one chain of several): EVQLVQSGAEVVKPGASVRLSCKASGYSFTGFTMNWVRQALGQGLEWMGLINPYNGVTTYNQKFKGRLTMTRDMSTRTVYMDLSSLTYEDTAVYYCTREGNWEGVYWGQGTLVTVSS
Procedure: as §1

Aβ1-40 monomer = biological target: T2, Aβ1-40 monomer (UniProt P05067 672-711); assay: inhibition ELISA
T2 construct: range 1-40
Procedure: as §1

Aβ1-42 protofibrils = biological target: T3, Aβ1-42 protofibrils (UniProt P05067 672-713); assay: inhibition ELISA
T3 construct: range 1-42; Soluble aggregates of Aβ1-42; The range counts on Aβ numbering, not on APP
Procedure: as §1

AβpE11-40 monomer = biological target: T1, AβpE11-40 monomer; assay: inhibition ELISA
Procedure: as §1

Aβ1-42 monomer = biological target: T4, Aβ1-42 monomer (UniProt P05067 672-713); assay: capture ELISA: plate coated with rabbit anti-Aβ42, peptide monomer captured, hybridoma supernatant, anti-mouse IgG-HRP, OD450 (Example 1)
T4 construct: range 1-42; The range counts on Aβ numbering, not on APP; also called monomeric Aβ1-42

Aβ2-42 monomer = biological target: T5, Aβ2-42 monomer (UniProt P05067 673-713); assay: as above
T5 construct: range 2-42; The range counts on Aβ numbering, not on APP

Aβ1-28 monomer = biological target: T6, Aβ1-28 monomer (UniProt P05067 672-699); assay: inhibition ELISA
T6 construct: range 1-28; The range counts on Aβ numbering, not on APP
Procedure: as §1

Aβ2-28 monomer = biological target: T7, Aβ2-28 monomer (UniProt P05067 673-699); assay: inhibition ELISA
T7 construct: range 2-28; The range counts on Aβ numbering, not on APP
Procedure: as §1

Aβ3-28 monomer = biological target: T8, Aβ3-28 monomer (UniProt P05067 674-699); assay: inhibition ELISA
T8 construct: range 3-28; The range counts on Aβ numbering, not on APP
Procedure: as §1

AβpE3-28 monomer = biological target: T9, AβpE3-28 monomer (UniProt P05067 674-699, pyroglutamate (pE) at position 3, the N-terminus); assay: inhibition ELISA
T9 construct: range 3-28; The range counts on Aβ numbering, not on APP
Procedure: as §1

Aβ4-28 monomer = biological target: T10, Aβ4-28 monomer (UniProt P05067 675-699); assay: inhibition ELISA
T10 construct: range 4-28; The range counts on Aβ numbering, not on APP
Procedure: as §1

Aβ5-28 monomer = biological target: T11, Aβ5-28 monomer (UniProt P05067 676-699); assay: inhibition ELISA
T11 construct: range 5-28; The range counts on Aβ numbering, not on APP
Procedure: as §1

AβpE11-28 monomer = biological target: B1; assay: inhibition ELISA
Procedure: as §1

AβpE3-40 monomer = biological target: T12, AβpE3-40 monomer (UniProt P05067 674-711, pyroglutamate (pE) at position 3, the N-terminus); assay: SPR (Biacore 8K), antibody immobilised on CM5, monomer injected, 1:1 model
T12 construct: range 3-40; also called monomeric AβpE3-40
Procedure: For the measurements, 5 μg/ml of […] antibody was immobilized on the chip. The monomer was then injected over the chip using a 2-fold dilution in five steps starting at 250 nM, using 2 min injection of every […] concentration and a 20 min dissociation time. Regeneration of the surface between cycles was done by injecting 30 μl 3 M MgCl₂. The binding data was fitted to a 1:1 interaction model.
In all SPR experiments, 1×HBS-EP+ (Cytiva, cat. no. BR100669) was used to dilute antibodies and target antigens. Experiments were performed at 25° C.
Affinity evaluation and Ko determination by surface plasmon resonance: Binding interactions between antigens and antibodies were evaluated by SPR using a Biacore 8K instrument (Cytiva) according to standard procedures.

binding result (Aβ1-40 monomer) | binding result (Aβ1-42 protofibrils) | binding result (Aβ3-28 monomer) | binding result (AβpE3-28 monomer) | Binder | also measured
– | – | – | – | B1 | IC50 (H2L7 [1]): > 12.5 µM; IC50 (H9L8): > 12.5 µM; IC50 (H2L7 [2]): > 12.5 µM; IC50 (H2L7-K12V/R71A): > 12.5 µM; IC50 (H2L7-K12V/R83T): > 12.5 µM
no binding (tested: 500 nM) | no binding (tested: 132 nM) | – | – | B2 | –
no binding (tested: 5 µM) | – | – | – | B3 | binding result (AβpE11-40 monomer): no binding (tested: 5 µM); binding result (Aβ1-42 monomer): no binding (tested: no concentration on the sheet); binding result (Aβ2-42 monomer): no binding (tested: no concentration on the sheet)
no binding (tested: 5 µM) | – | – | – | B4 | binding result (AβpE11-40 monomer): no binding (tested: 5 µM); binding result (Aβ1-42 monomer): no binding (tested: no concentration on the sheet); binding result (Aβ2-42 monomer): no binding (tested: no concentration on the sheet)
no binding (tested: 12.5 µM) | no binding (tested: 500 nM) | binds | binds | B5 | binding result (Aβ1-28 monomer): no binding (tested: 12500 nM); binding result (Aβ2-28 monomer): no binding (tested: 12500 nM); binding result (Aβ4-28 monomer): no binding (tested: 12500 nM); binding result (Aβ5-28 monomer): no binding (tested: 12500 nM); binding result (AβpE11-28 monomer): no binding (tested: 12500 nM)
no binding (tested: 500 nM) | no binding (tested: 132 nM) | binds | binds | B6 | –
no binding (tested: 500 nM) | no binding (tested: 132 nM) | binds | binds | B7 | –
no binding (tested: 500 nM) | no binding (tested: 132 nM) | – | – | B8 | Kd (AβpE3-40 monomer): 0.00462 µM; koff (AβpE3-40 monomer): 0.000225 s⁻¹; kon (AβpE3-40 monomer): 50100 M⁻¹ s⁻¹
no binding (tested: 500 nM) | no binding (tested: 132 nM) | – | – | B9 | –
no binding (tested: 12.5 µM) | no binding (tested: 500 nM) | binds | binds | B10 | binding result (Aβ1-28 monomer): no binding (tested: 12.5 µM); binding result (Aβ2-28 monomer): no binding (tested: 12.5 µM); binding result (Aβ4-28 monomer): no binding (tested: 12.5 µM); binding result (Aβ5-28 monomer): no binding (tested: 12.5 µM); binding result (AβpE11-28 monomer): no binding (tested: 12.5 µM)
